The results in this text go back to publication PMC2823488.

Targets include TLS (UniProt P35637 1-526); GST-TLS 211-526 (UniProt P35637 211-526); GST-TLS 373-526 (UniProt P35637 373-526).
Common to all, as to assay: EMSA

Sequence of TLS (P35637 whole entry): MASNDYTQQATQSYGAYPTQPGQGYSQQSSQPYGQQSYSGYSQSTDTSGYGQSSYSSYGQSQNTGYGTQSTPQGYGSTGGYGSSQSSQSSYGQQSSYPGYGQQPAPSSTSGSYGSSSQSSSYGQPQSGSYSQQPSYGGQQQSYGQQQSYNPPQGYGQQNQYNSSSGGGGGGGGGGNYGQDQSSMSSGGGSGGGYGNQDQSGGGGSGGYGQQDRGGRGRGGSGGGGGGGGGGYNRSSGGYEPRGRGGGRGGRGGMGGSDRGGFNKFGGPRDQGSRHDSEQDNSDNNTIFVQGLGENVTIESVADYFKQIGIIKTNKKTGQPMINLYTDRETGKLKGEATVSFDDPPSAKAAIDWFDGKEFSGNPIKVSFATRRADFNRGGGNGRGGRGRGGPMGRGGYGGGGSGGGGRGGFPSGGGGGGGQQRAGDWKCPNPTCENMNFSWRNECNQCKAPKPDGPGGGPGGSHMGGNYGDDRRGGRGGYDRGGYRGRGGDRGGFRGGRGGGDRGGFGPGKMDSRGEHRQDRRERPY
Sequence of GST-TLS 373-526 (P35637 373-526): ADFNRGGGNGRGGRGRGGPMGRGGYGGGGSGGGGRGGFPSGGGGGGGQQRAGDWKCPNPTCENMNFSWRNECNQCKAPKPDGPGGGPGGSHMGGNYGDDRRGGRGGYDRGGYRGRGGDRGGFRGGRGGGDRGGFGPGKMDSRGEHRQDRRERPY
Sequence of GST-TLS 211-526 (P35637 211-526): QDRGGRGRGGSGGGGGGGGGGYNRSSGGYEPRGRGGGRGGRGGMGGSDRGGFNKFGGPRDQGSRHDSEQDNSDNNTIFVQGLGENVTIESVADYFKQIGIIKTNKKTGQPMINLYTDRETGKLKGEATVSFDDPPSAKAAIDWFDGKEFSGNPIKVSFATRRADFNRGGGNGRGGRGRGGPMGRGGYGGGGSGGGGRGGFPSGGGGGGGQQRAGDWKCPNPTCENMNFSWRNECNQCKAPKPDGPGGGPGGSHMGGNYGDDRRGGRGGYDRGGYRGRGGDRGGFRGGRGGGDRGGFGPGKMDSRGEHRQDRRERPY

Regarding UCUGCCGGCUUGGAUAUGGGGUGUC (ssRNA) [-454s (RNA in Fig. 4g)], the binding result with TLS is given as “binds”.

B1: RNA:DNA hybrid of -454s (DNA:RNA)
RNA: UCUGCCGGCUUGGAUAUGGGGUGUC
DNA: GACACCCCATATCCAAGCCGGCAGA
B1: the binding result in the data set with TLS is given as “no binding”. UUGUAUUUUGAGCUAGUUUGGUGAC (ssRNA) [GGUG-oligonucleotide]: the binding result in the data set with GST-TLS 211-526, with GST-TLS 373-526 and with TLS was “binds” in each case. Consider CCCGGGAUUUAGGGGGUGAGGUGGA (ssRNA) [-341a], for which the binding result in the data set with TLS was “binds”.

As to GACACCCCATATCCAAGCCGGCAGA (ssDNA) [DNA (complement of -454s)], the binding result with TLS is reported as “no binding”.

With UCCAGCAGCAGCCCAAGAUGGUGGC (ssRNA) [-764a], the binding result with TLS is “no binding”. Still for that read-out and setting: for UGGCAUCGUGAUGGACUCCGGUGAC (ssRNA) [β-actin RNA] the value was “no binding”.
